Test results as given in patent US20110028695A1 (published 2011).

What was measured:
HER2 on SKBR3 cells [1] = target: T1, HER2 on SKBR3 cells (human, UniProt P04626 23-1255); test: cell-based or functional assay
HER2 on SKBR3 cells [2] = target: T1, HER2 on SKBR3 cells; test: FMAT on SKBR3 cells, periplasmic extract; competitor Alexa647-Herceptin
HER2 on SKBR3 cells [3] = target: T1, HER2 on SKBR3 cells; test: FMAT on SKBR3 cells; competitor labeled Herceptin
[4] = target: T2, recombinant human ErbB2/Fc chimera (human, UniProt P04626 23-652); test: SPR Biacore 3000, periplasmic extract over immobilised rhErbB2-Fc
T2 construct: bought from R&D Systems; also called rhErbB2-Fc; rhErb2-Fc; Fc part of the bought chimera not given

HER2 on SKBR3 cells [5] = target: T1, HER2 on SKBR3 cells; test: FMAT on SKBR3 cells, periplasmic extract; competitor biotinylated OT-Fab

Binder | binding result (HER2 on SKBR3 cells [3]) | other results
2D3 (VHH) VHH: EVQLVESGGSLVQPGGSLRLSCAASGFTFDDYAMSWVRQVPGKGLEWVSSINWSGTHTDYADSVKGRFTISRNNANNTLYLQMNSLKSEDTAVYYCAKNWRDAGTTWFEKSGSAGQGTQVTVSS | – | inhibition of SKBR3 proliferation ([3H]-thymidine), 50 nM Nanobody (HER2 on SKBR3 cells [1]): ~30%
13C12 (VHH, c-myc/His6-tagged) VHH: EVQLVESGGSLVQPGGSLRLSCATSGFTFDDYAMTWVRQAPGKGLEWVSSINWSGTHTDYTDSVKGRFTISRNNANNTLYLQMNSLKSEDTAVYYCAKNWGDAGTTWFEKSGSAGQGTQVTVSS | – | % blocking of Herceptin binding (HER2 on SKBR3 cells [2]): > 90%
2A4-9GS-2A4 (VHH, bivalent Nanobody, two VHH joined by a 9GS linker) EVQLVESGGGLVQPGGSLRLSCAASGFIFDDYAMSWVRQAPGKGLEWVSAINWSGSHRNYADSVKGRFTISRDNAKKTVYLQMNSLQSEDTAVYYCGTGWQSTTKNQGYWGQGTQVTVSSGGGGSGGGSEVQLVESGGGLVQPGGSLRLSCAASGFIFDDYAMSWVRQAPGKGLEWVSAINWSGSHRNYADSVKGRFTISRDNAKKTVYLQMNSLQSEDTAVYYCGTGWQSTTKNQGYWGQGTQVTVSS | binds | –
2A5-9GS-2A5 (VHH, bivalent Nanobody, two VHH joined by a 9GS linker) EVQLVESGGGLVQPGGSLRLSCATSGFTFDDYAMTWVRQAPGKGLEWVSSINWSGTHTDYTDSVKGRFTISRNNANNTLYLQMNSLKSEDTAVYYCAKNWGDAGTTWFEKSGSAGQGTQVTVSSGGGGSGGGSEVQLVESGGGLVQPGGSLRLSCATSGFTFDDYAMTWVRQAPGKGLEWVSSINWSGTHTDYTDSVKGRFTISRNNANNTLYLQMNSLKSEDTAVYYCAKNWGDAGTTWFEKSGSAGQGTQVTVSS | binds | –
2D3-9GS-2D3 (VHH, bivalent Nanobody, two VHH joined by a 9GS linker) EVQLVESGGSLVQPGGSLRLSCAASGFTFDDYAMSWVRQVPGKGLEWVSSINWSGTHTDYADSVKGRFTISRNNANNTLYLQMNSLKSEDTAVYYCAKNWRDAGTTWFEKSGSAGQGTQVTVSSGGGGSGGGSEVQLVESGGSLVQPGGSLRLSCAASGFTFDDYAMSWVRQVPGKGLEWVSSINWSGTHTDYADSVKGRFTISRNNANNTLYLQMNSLKSEDTAVYYCAKNWRDAGTTWFEKSGSAGQGTQVTVSS | binds | –
2C3-9GS-2C3 (VHH, bivalent Nanobody, two VHH joined by a 9GS linker) EVQLVESGGGLVQPGGSLRLSCVASGFSLDDYGMTWVRQAPGKGLEWVSSINWSGTHTDYADSVKGRFTISRDNAKNTLFLQMNSLRSEDTAVYYCNQGWKIVPTDRTGHGTQVTVSSGGGGSGGGSEVQLVESGGGLVQPGGSLRLSCVASGFSLDDYGMTWVRQAPGKGLEWVSSINWSGTHTDYADSVKGRFTISRDNAKNTLFLQMNSLRSEDTAVYYCNQGWKIVPTDRTGHGTQVTVSS | binds | –
27H3-35GS-2D3 (other, biparatopic Nanobody, 35GS linker; c-myc, His6-tagged) EVQLVESGGSLVQPGGSLRLSCAASGFTFDDYAMTWVRQASGKGLEWVSSINWSGTHTDYTDSVKGRFTISRNNANNTLYLQMNSLKSEDTAVYYCAKNWGDAGTTWFEKSGSAGQGTQVTVSSGGGGSGGGGSGGGGSGGGGSGGGGSGGGGSGGGGSEVQLVESGGSLVQPGGSLRLSCAASGFTFDDYAMSWVRQVPGKGLEWVSSINWSGTHTDYADSVKGRFTISRNNANNTLYLQMNSLKSEDTAVYYCAKNWRDAGTTWFEKSGSAGQGTQVTVSS | binds | –
27A5-35GS-2D3 (bispecific antibody, biparatopic Nanobody, 35GS linker; c-myc, His6-tagged) EVQLVESGGGLVQAGGSLNLSCVASGIPFSTRTMAWYRQPPGNERDWVATIRSGAPVYADSVKGRFTVSRDNAKNTLYLQMNSLEPEDTATYYCWDVNGDIWGQGTPVTVSSGGGGSGGGGSGGGGSGGGGSGGGGSGGGGSGGGGSEVQLVESGGSLVQPGGSLRLSCAASGFTFDDYAMSWVRQVPGKGLEWVSSINWSGTHTDYADSVKGRFTISRNNANNTLYLQMNSLKSEDTAVYYCAKNWRDAGTTWFEKSGSAGQGTQVTVSS | binds | –
30D10-35GS-2D3 (bispecific antibody, biparatopic Nanobody, 35GS linker; c-myc, His6-tagged) EVQLVESGGGLVQAGGSLTLSCTASETTVRIRTMAWYRQPPGNQREWVATIGSNGFATYPDSVKGRFTISRDNAKNTVYLQMNSLKPEDTAVYYCRDINRDIWGQGSQVTVSSGGGGSGGGGSGGGGSGGGGSGGGGSGGGGSGGGGSEVQLVESGGSLVQPGGSLRLSCAASGFTFDDYAMSWVRQVPGKGLEWVSSINWSGTHTDYADSVKGRFTISRNNANNTLYLQMNSLKSEDTAVYYCAKNWRDAGTTWFEKSGSAGQGTQVTVSS | binds | –
2H3 (VHH, c-myc/His6-tagged) VHH: EVQLVESGGGLVQPGGSLRLSCVASGFSLDDYGMTWVRQAPGKGLEWVSSINWSGTHTDYADSVKGRFTISRDNAKNTLFLQMNSLTPEDTAVYYCNQGWKIIPTDRRGHGTQVTVSS | – | koff [4]: 0.00109 s⁻¹
47D5 (VHH, c-myc/His6-tagged; also called 47A8) VHH: KVQLVESGGGLVQPGGSLRLSCAASGSIFGFNDMAWYRQAPGKQRELVALISRVGVTSSADSVKGRFTISRVNAKDTVYLQMNSLKPEDTAVYYCYMDQRLDGSTLAYWGQGTQVTVSS | – | % blocking of OT-Fab binding (HER2 on SKBR3 cells [5]): > 85%
